B1: Mediator of RNA polymerase II transcription subunit 15 (Homo sapiens), Q96RN5 (parent)
chain: MDVSGQETDWRSTAFRQKLVSQIEDAMRKAGVAHSKSSKDMESHVFLKAKTRDEYLSLVARLIIHFRDIHNKKSQASVSDPMNALQSLTGGPAAGAAGIGMPPRGPGQSLGGMGSLGAMGQPMSLSGQPPPGTSGMAPHSMAVVSTATPQTQLQLQQVALQQQQQQQQFQQQQQAALQQQQQQQQQQQFQAQQSAMQQQFQAVVQQQQQLQQQQQQQQHLIKLHHQNQQQIQQQQQQLQRIAQLQLQQQQQQQQQQQQQQQQALQAQPPIQQPPMQQPQPPPSQALPQQLQQMHHTQHHQPPPQPQQPPVAQNQPSQLPPQSQTQPLVSQAQALPGQMLYTQPPLKFVRAPMVVQQPPVQPQVQQQQTAVQTAQAAQMVAPGVQMITEALAQGGMHIRARFPPTTAVSAIPSSSIPLGRQPMAQVSQSSLPMLSSPSPGQQVQTPQSMPPPPQPSPQPGQPSSQPNSNVSSGPAPSPSSFLPSPSPQPSQSPVTARTPQNFSVPSPGPLNTPVNPSSVMSPAGSSQAEEQQYLDKLKQLSKYIEPLRRMINKIDKNEDRKKDLSKMKSLLDILTDPSKRCPLKTLQKCEIALEKLKNDMAVPTPPPPPVPPTKQQYLCQPLLDAVLANIRSPVFNHSLYRTFVPAMTAIHGPPITAPVVCTRKRRLEDDERQSIPSVLQGEVARLDPKFLVNLDPSHCSNNGTVHLICKLDDKDLPSVPPLELSVPADYPAQSPLWIDRQWQYDANPFLQSVHRCMTSRLLQLPDKHSVTALLNTWAQSVHQACLSAA
partner: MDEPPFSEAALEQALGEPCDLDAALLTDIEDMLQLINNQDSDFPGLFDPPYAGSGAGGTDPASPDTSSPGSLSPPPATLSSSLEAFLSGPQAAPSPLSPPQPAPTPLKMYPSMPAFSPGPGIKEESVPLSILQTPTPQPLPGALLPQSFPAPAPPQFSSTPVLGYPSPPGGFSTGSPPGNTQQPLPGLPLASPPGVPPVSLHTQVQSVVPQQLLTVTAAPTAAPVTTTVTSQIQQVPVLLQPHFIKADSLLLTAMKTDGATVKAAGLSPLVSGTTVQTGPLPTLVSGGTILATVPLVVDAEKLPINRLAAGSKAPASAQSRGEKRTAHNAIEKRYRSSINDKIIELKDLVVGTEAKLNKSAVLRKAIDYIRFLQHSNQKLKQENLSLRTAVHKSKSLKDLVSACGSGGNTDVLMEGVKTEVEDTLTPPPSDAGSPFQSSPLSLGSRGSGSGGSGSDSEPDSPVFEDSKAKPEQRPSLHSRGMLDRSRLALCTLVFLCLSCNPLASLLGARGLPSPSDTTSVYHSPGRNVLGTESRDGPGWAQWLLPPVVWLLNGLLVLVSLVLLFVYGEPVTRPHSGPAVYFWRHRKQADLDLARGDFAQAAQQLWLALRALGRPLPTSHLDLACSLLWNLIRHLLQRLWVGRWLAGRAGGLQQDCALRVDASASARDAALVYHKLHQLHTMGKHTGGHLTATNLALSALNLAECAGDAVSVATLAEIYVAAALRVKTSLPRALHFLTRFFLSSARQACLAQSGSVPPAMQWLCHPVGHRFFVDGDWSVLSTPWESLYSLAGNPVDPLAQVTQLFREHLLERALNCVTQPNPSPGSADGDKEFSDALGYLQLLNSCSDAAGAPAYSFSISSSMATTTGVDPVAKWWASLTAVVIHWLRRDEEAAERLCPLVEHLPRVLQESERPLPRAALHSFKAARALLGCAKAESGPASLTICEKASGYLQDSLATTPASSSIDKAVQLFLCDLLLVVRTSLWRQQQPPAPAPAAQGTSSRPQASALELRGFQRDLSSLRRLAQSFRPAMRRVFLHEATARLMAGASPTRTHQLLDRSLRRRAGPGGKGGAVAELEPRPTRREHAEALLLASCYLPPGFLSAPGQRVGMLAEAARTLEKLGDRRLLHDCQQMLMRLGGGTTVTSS

Variants of: B1
Conditions: with SREBF1, P36956-1

Effect of a mutation on the interaction, disrupting interaction strength:
E42A
L58D
A60D
